Test results published in patent US7183387.
Like-named read-outs stand apart in the source and are kept apart here.

What was measured:
[1] = target: human C1q (Quidel) (human) (UniProt P02745); experiment: C1q ELISA
[2] = target: CD20 antigen on WIL2-S cells (UniProt P11836); experiment: flow cytometry, WIL2-S cells
[3] = target: human C1q (Quidel) (human) (UniProt P02745); experiment: cell-based or functional assay
[4] = target: human C1q (Quidel) (human) (UniProt P02745); experiment: C1q ELISA; remark: listed apart in the source
[5] = target: human C1q (Quidel) (human) (UniProt P02745); experiment: C1q ELISA; remark: listed apart in the source
[6] = target: human FcγRIIIA-F158 α subunit extracellular domain-6His-GST fusion (human) (UniProt P08637); experiment: ELISA, IgG:IgE hexamers on receptor-GST
[7] = target: human FcγRIIA-R131 α subunit extracellular domain-6His-GST fusion (human) (UniProt P12318); experiment: ELISA, IgG:IgE hexamers on receptor-GST
Chain of human FcγRIIA-R131 α subunit extracellular domain-6His-GST fusion (human) (P12318 other isoform, or with tags, fused parts or gaps, form in doubt): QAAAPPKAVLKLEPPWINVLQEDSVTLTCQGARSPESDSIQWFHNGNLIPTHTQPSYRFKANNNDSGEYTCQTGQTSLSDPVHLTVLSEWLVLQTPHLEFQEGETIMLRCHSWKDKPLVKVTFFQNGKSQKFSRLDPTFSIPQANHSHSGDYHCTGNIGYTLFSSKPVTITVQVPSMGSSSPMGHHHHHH

[8] = target: human FcγRIIB α subunit extracellular domain-6His-GST fusion (human) (UniProt P31994); experiment: ELISA, IgG:IgE hexamers on receptor-GST
Chain of human FcγRIIB α subunit extracellular domain-6His-GST fusion (human) (P31994 other isoform, or with tags, fused parts or gaps, form in doubt): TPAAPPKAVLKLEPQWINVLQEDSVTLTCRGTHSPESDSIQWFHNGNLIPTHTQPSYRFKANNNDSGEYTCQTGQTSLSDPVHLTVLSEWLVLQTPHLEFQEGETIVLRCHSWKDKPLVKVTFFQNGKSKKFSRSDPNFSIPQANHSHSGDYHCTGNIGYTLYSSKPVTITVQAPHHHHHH

[9] = target: human FcγRIA α subunit extracellular domain-His6-GST fusion (human) (UniProt P12314); experiment: FcγRI ELISA and THP-1 cells, averaged
Chain of human FcγRIA α subunit extracellular domain-His6-GST fusion (human) (P12314 other isoform, or with tags, fused parts or gaps): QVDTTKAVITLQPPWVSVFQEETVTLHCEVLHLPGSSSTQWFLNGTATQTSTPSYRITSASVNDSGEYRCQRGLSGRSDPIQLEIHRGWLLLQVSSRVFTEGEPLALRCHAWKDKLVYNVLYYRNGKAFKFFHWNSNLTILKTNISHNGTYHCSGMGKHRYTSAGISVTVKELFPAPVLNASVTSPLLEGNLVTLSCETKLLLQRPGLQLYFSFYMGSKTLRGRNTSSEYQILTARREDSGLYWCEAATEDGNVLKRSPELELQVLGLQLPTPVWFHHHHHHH

[10] = target: human neonatal Fc receptor (FcRn), biotinylated (human) (UniProt P55899); experiment: FcRn ELISA, pH 6.0
Chain of human neonatal Fc receptor (FcRn), biotinylated (human) (P55899 24-297 limits assumed, chain 1 of 2): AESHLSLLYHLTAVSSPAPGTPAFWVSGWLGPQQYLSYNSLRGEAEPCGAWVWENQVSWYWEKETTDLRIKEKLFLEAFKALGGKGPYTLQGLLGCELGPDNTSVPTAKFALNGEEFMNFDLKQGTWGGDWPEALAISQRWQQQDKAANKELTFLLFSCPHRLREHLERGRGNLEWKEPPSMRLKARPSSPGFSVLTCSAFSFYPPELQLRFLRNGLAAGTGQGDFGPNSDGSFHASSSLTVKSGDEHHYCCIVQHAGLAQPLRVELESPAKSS
Chain of human neonatal Fc receptor (FcRn), biotinylated (human) (P61769 21-119 limits assumed, chain 2 of 2, further chain): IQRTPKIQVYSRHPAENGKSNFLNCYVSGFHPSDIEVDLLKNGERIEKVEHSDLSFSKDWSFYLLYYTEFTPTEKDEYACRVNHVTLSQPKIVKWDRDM

[11] = target: human FcγRIIA-Arg131 α subunit extracellular domain-His6-GST fusion (human) (UniProt P12318); experiment: hexamer ELISA
Chain of human FcγRIIA-Arg131 α subunit extracellular domain-His6-GST fusion (human) (P12318 other isoform, or with tags, fused parts or gaps): as the sequence (P12318 other isoform, or with tags, fused parts or gaps, form in doubt) above

[12] = target: human FcγRIIB α subunit extracellular domain-His6-GST fusion (human) (UniProt P31994); experiment: immune complex ELISA, E27 background
Chain of human FcγRIIB α subunit extracellular domain-His6-GST fusion (human) (P31994 other isoform, or with tags, fused parts or gaps): as the sequence (P31994 other isoform, or with tags, fused parts or gaps, form in doubt) above

[13] = target: human FcγRIIA-R131 α subunit extracellular domain-His6-GST fusion (human) (UniProt P12318); experiment: ELISA, IgG:IgE hexamer on coated FcγRIIA-R131-GST; value carried over from Table 6, 7 or 8
Chain of human FcγRIIA-R131 α subunit extracellular domain-His6-GST fusion (human) (P12318 other isoform, or with tags, fused parts or gaps, form in doubt): as the sequence (P12318 other isoform, or with tags, fused parts or gaps, form in doubt) above

[14] = target: human FcγRIIA-R131 α subunit extracellular domain-His6-GST fusion (human) (UniProt P12318); experiment: ELISA, IgG complex, receptor coated
[15] = target: human FcγRIIIA-Phe158 on cells (CHO cells stably transfected with α- and γ-chains; NK cells of Phe158/Phe158 donors) (human) (UniProt P08637); experiment: cell-based or functional assay
Chain of human FcγRIIIA-Phe158 on cells (CHO cells stably transfected with α- and γ-chains; NK cells of Phe158/Phe158 donors) (human) (P08637 17-254, chain 1 of 2): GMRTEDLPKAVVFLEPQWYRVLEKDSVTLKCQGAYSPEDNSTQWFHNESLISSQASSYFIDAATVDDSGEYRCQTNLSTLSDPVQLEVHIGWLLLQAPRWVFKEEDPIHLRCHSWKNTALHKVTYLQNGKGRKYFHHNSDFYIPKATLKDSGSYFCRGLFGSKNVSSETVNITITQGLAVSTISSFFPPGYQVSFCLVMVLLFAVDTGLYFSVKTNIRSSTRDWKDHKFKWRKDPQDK
Chain of human FcγRIIIA-Phe158 on cells (CHO cells stably transfected with α- and γ-chains; NK cells of Phe158/Phe158 donors) (human) (P30273 19-86, chain 2 of 2, further chain): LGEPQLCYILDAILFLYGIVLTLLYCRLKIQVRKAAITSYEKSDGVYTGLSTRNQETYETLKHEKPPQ

Chain of human C1q (Quidel) (human) (P02745 23-245, chain 1 of 3): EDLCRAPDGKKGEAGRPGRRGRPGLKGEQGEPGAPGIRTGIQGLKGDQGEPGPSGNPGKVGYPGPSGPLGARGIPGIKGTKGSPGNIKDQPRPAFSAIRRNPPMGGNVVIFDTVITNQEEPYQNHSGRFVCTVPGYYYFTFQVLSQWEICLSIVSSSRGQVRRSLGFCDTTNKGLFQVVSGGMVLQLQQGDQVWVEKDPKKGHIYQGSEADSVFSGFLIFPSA
Chain of human C1q (Quidel) (human) (P02746 28-253, chain 2 of 3, further chain): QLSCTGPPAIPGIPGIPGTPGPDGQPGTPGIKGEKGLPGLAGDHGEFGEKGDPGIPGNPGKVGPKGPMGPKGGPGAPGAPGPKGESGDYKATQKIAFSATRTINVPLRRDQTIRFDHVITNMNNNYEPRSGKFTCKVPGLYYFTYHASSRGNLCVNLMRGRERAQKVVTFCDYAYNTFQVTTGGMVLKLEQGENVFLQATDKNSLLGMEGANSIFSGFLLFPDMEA
Chain of human C1q (Quidel) (human) (P02747 29-245, chain 3 of 3, further chain): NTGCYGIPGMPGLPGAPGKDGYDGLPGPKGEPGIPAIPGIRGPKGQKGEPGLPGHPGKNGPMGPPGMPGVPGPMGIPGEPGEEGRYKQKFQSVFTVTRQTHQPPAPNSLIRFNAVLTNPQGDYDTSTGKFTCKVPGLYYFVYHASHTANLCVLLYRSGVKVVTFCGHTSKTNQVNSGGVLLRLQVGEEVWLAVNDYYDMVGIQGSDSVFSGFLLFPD
Chain of CD20 antigen on WIL2-S cells (P11836 whole entry): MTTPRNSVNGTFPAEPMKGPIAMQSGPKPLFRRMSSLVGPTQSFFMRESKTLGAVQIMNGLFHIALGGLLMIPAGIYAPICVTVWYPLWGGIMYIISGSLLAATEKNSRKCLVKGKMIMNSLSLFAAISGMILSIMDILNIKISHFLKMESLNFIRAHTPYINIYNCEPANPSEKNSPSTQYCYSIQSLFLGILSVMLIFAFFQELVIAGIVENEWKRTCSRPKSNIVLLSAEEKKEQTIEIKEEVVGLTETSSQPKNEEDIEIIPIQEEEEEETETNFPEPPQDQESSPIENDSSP

C2B8 (human IgG1 constant region) A327 changed to glycine (antibody)
increase in binding against wild type [1]: 50%

C2B8 E318A (antibody)
decrease in binding against wild type [1]: 30% | percentage of the wild type [2]: 89% | CDC (% of wild type) [3]: 108

C2B8 E333A (antibody)
increase in binding against wild type [1]: 30%

C2B8 E333S (antibody)
fold increase in binding against wild type [1]: > 2 fold | fold increase in binding against wild type [4]: 2 fold

C2B8 K320A (antibody)
percentage of the wild type [2]: 102% | CDC (% of wild type) [3]: 108

C2B8 K326A (antibody)
increase in binding against wild type [1]: 30%

C2B8 K326A-E333A (antibody)
fold better binding than wild type [1]: > 3 fold | CDC [3]: 2 fold

C2B8 K326D (antibody)
fold increase in binding against wild type [1]: > 2 fold

C2B8 K326E (antibody)
fold increase in binding against wild type [1]: > 2 fold

C2B8 K326M (antibody)
fold increase in binding against wild type [1]: > 2 fold

C2B8 K326M-E333S (antibody)
fold better binding than wild type [1]: > 3 fold | CDC [3]: 2 fold

C2B8 K326W (antibody)
fold increase in binding against wild type [1]: 5 fold | fold increase in binding against wild type [5]: > 2 fold

C2B8 P329A (antibody)
percentage of the wild type [2]: 112%

C2B8 P331A (antibody)
fold lower binding than wild type [1]: 60 fold | percentage of the wild type [2]: 103%

E27 IgG1 variant K320(339)R (IG2 172) (antibody)
ratio to native IgG1 [6]: 0.68 | ratio to native IgG1 [7]: 0.71 | ratio to native IgG1 [8]: 0.66

E27 IgG1 variant K320(339)R (IG2 235) (antibody)
ratio to native IgG1 [6]: 0.86 | ratio to native IgG1 [7]: 1.24 | ratio to native IgG1 [8]: 0.95

E27 IgG1 variant S267(280)T (antibody)
ratio to native IgG1 [6]: 0.05

anti-IgE E27 IgG1 Asn297Ala (antibody)
ratio to native IgG1 [9]: 0.15

anti-IgE E27 IgG1 Glu233Pro/Leu234Val/Leu235Ala/Gly236deleted (antibody)
ratio to native IgG1 [10]: 0.54 | ratio to native IgG1 [11]: 0.08

anti-IgE E27 IgG1 Pro329Ala (antibody)
percentage of the wild type [12]: 96%

anti-IgE E27 IgG1 variant Asp270Ala (antibody)
ratio of binding of the variant to that of native IgG1 (ratio (variant/native IgG1)) [13]: 0.06

anti-IgE E27 IgG1 variant S298(317)V (antibody)
ratio of binding, variant/native IgG1 (mean) [14]: 0.11

anti-p185HER2 IgG1 variant Ser298Ala/Glu333Ala/Lys334Ala (antibody)
ADCC, NK cells of Phe158/Phe158 donors [15]: > 100%
